EC50 and ELISA score data for 13 molecules are collected here from patent US20140356358A1 (Amgen, published 2014).

Read-outs that look alike come from different tables or passages of the source.

Experiment [1] concerns the target T1, human neonatal Fc receptor (hFcRn) (human, UniProt P55899 24-290; P61769 21-119).
T1 construct: Biotinylated in the ELISA, Octet and yeast assays; also called human FcRn; huFcRn
The experiment is described as follows: SPR competition pH 5.5.

Experiment [2] concerns the target T1, human neonatal Fc receptor (hFcRn). As to the kind of experiment: phage ELISA pH 6.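 Note: higher score means stronger binding and above about 3 to 5 exceeds background.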 A general note: An ELISA detects its analyte on a solid surface through an enzyme-linked reagent.
Experiment [3] has the same target. The experiment is described as follows: SPR competition pH 5.5. As for the experimental part:
(§1) Binding of variant Fc-fragments to human and cynomolgus monkey FcRn was tested using a BIAcore® T100 analysis system (GE Healthcare Bio-Sciences AB Private Limited Liability Company, Uppsala, Sweden) at both pH 5.5 and pH 7.4. The test consisted of incubating various concentrations of the variant Fc-fragments or control Fc-fragments with a fixed amount of human or cynomolgus monkey FcRn under binding conditions and subsequently measuring the amount of free, unbound FcRn in these mixtures by binding to a surface (in a flow cell of a CM5 (Biacore) chip) on which an Fc-fragment was immobilized. […] Thus, the amount of unbound FcRn in the mixture was quantitatively ascertained by surface plasmon resonance through use of the BIAcore® T100 analysis system. […] Initially, a group of 23 variant-Fc-fragments (Fc-5-1 being considered a control) identified in the experiments described above were tested for binding to human FcRn.
(§2) To obtain a reasonable signal for the different molecules and conditions tested, different assay conditions were used. For assays at pH 5.5, 10 nM of human or cynomolgus monkey FcRn was mixed with serial dilutions of the variant and control Fc-fragments being tested (which ranged from 0.1˜2,000 nM) and incubated for 1 hour at room temperature in 10 mM sodium acetate, pH 5.5, 150 mM NaCl, 0.005% P20, 0.1 mg/mL BSA. As positive controls, […] human and cynomolgus monkey FcRn were each incubated in the same solution, for the same time, and at the same temperature described immediately above, but without an added Fc-fragment.
This is another data set of the same source.

The target in a further experiment is T2, cynomolgus monkey FcRn (cynomolgus monkey, UniProt Q8SPV9 24-297; Q8SPW0 21-119, limits assumed).
T2 construct: also called Cynomolgus FcRn
As to the kind of experiment: SPR competition pH 5.5. As for the experimental part:
as §1, §2

The target of experiment [4] is T1, human neonatal Fc receptor (hFcRn). The experiment is described as follows: phage ELISA pH 7.4.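 Note: higher score means stronger binding and above about 3 to 5 exceeds background.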

T2 sequence (Q8SPV9 24-297 limits assumed, chain 1 of 2): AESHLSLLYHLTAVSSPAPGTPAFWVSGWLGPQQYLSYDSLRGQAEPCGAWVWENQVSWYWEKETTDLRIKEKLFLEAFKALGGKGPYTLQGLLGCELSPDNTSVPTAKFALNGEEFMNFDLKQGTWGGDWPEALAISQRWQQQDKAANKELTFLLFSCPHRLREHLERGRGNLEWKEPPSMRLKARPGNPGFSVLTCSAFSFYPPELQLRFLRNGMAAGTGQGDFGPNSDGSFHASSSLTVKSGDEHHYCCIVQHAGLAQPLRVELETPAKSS
T2 sequence (Q8SPW0 21-119 limits assumed, chain 2 of 2): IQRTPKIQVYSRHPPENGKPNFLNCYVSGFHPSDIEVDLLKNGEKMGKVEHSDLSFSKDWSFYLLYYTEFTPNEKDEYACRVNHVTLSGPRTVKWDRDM
T1 sequence (P55899 24-290 limits assumed, chain 1 of 2): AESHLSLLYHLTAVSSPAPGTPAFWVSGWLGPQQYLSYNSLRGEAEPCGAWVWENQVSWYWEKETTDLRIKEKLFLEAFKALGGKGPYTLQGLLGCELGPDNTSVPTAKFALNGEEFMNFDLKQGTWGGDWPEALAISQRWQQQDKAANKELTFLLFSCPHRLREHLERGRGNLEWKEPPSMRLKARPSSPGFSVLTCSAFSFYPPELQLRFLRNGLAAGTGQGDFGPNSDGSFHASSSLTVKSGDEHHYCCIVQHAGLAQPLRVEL
T1 sequence (P61769 21-119 limits assumed, chain 2 of 2): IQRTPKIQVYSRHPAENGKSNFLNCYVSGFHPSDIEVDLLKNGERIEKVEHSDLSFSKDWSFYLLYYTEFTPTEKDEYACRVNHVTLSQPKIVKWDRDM

B1: variant Fc-fragment Fc-5-106-M4Q (other)
chain: EPKSCDKTHTCPPCPAPELLGGPSVFLFPPKPKDTLMISRTPEVTCVVVDVSHEDPEVKFNWYVDGVEVHNAKTKPREEQYNSTYRVVSVLTVLHQDWLNGKEYKCKVSNKALPAPIEKTISKAKGQPREPQVYTLPPSRDELTKNQVSLTCLVKGFYPSDIAVEWESNGGCVFNQFNCGGGQPENNYKTTPPVLDSDGSFFLYSKLTVDKSRWQQGNVFSCSVMHEALHNHYTQKSLSLSPGK
For the molecule B1, in experiment [1], the response was half-maximal at 34 nM (EC50).

B2: variant Fc-fragment Fc-5-106-M4H (other)
chain: EPKSCDKTHTCPPCPAPELLGGPSVFLFPPKPKDTLMISRTPEVTCVVVDVSHEDPEVKFNWYVDGVEVHNAKTKPREEQYNSTYRVVSVLTVLHQDWLNGKEYKCKVSNKALPAPIEKTISKAKGQPREPQVYTLPPSRDELTKNQVSLTCLVKGFYPSDIAVEWESNGGCVFNHFNCGGGQPENNYKTTPPVLDSDGSFFLYSKLTVDKSRWQQGNVFSCSVMHEALHNHYTQKSLSLSPGK
Regarding B2, the response in experiment [1] was half-maximal at 100 nM (EC50).

B3: variant Fc-fragment Fc-5-104 (other)
chain: EPKSCDKTHTCPPCPAPELLGGPSVFLFPPKPKDTLMISRTPEVTCVVVDVSHEDPEVKFNWYVDGVEVHNAKTKPREEQYNSTYRVVSVLTVLHQDWLNGKEYKCKVSNKALPAPIEKTISKAKGQPREPQVYTLPPSRDELTKNQVSLTCLVKGFYPSDIAVEWESNGGCGHEYMWCGGGQPENNYKTTPPVLDSDGSFFLYSKLTVDKSRWQQGNVFSCSVMHEALHNHYTQKSLSLSPGK
notes: soluble elsewhere
B3 had an ELISA score in experiment [2] of 82.4. Also, the EC50 (commonly the concentration giving half of the maximal effect) worked out at 15 nM in experiment [3] and 16 nM with cynomolgus monkey FcRn.

B4: variant Fc-fragment Fc-5-106-M4N (other)
chain: EPKSCDKTHTCPPCPAPELLGGPSVFLFPPKPKDTLMISRTPEVTCVVVDVSHEDPEVKFNWYVDGVEVHNAKTKPREEQYNSTYRVVSVLTVLHQDWLNGKEYKCKVSNKALPAPIEKTISKAKGQPREPQVYTLPPSRDELTKNQVSLTCLVKGFYPSDIAVEWESNGGCVFNNFNCGGGQPENNYKTTPPVLDSDGSFFLYSKLTVDKSRWQQGNVFSCSVMHEALHNHYTQKSLSLSPGK
In experiment [1], B4 showed an EC50 of 100 nM.

B5: variant Fc-fragment Fc-5-106-M4G (other)
chain: EPKSCDKTHTCPPCPAPELLGGPSVFLFPPKPKDTLMISRTPEVTCVVVDVSHEDPEVKFNWYVDGVEVHNAKTKPREEQYNSTYRVVSVLTVLHQDWLNGKEYKCKVSNKALPAPIEKTISKAKGQPREPQVYTLPPSRDELTKNQVSLTCLVKGFYPSDIAVEWESNGGCVFNGFNCGGGQPENNYKTTPPVLDSDGSFFLYSKLTVDKSRWQQGNVFSCSVMHEALHNHYTQKSLSLSPGK
Take B5: in experiment [1], a half-maximal effect (EC50) was put at 100 nM.

B6: variant Fc-fragment Fc-5-112 (other)
chain: EPKSCDKTHTCPPCPAPELLGGPSVFLFPPKPKDTLMISRTPEVTCVVVDVSHEDPEVKFNWYVDGVEVHNAKTKPREEQYNSTYRVVSVLTVLHQDWLNGKEYKCKVSNKALPAPIEKTISKAKGQPREPQVYTLPPSRDELTKNQVSLTCLVKGFYPSDIAVEWESNGGCALYPTNCGGGQPENNYKTTPPVLDSDGSFFLYSKLTVDKSRWQQGNVFSCSVMHEALHNHYTQKSLSLSPGK
notes: soluble elsewhere
B6: the ELISA score amounted to 62.7 in experiment [2] and 0.4 in experiment [4]. The EC50 in experiment [3] amounted to 46 nM; in the experiment with cynomolgus monkey FcRn it was 49 nM.

B7: variant Fc-fragment Fc-5-113 (other)
chain: EPKSCDKTHTCPPCPAPELLGGPSVFLFPPKPKDTLMISRTPEVTCVVVDVSHEDPEVKFNWYVDGVEVHNAKTKPREEQYNSTYRVVSVLTVLHQDWLNGKEYKCKVSNKALPAPIEKTISKAKGQPREPQVYTLPPSRDELTKNQVSLTCLVKGFYPSDIAVEWESNGGCQGMWTWCGGGQPENNYKTTPPVLDSDGSFFLYSKLTVDKSRWQQGNVFSCSVMHEALHNHYTQKSLSLSPGK
notes: soluble elsewhere
As to B7, the results for the ELISA score in experiment [2] and in experiment [4] were 56.1 and 0.7, respectively. The results for the EC50 (in experiment [3]; with cynomolgus monkey FcRn) were 20 nM and 27 nM, respectively.

B8: variant Fc-fragment Fc-5-69-W1Y (other)
chain: EPKSCDKTHTCPPCPAPELLGGPSVFLFPPKPKDTLMISRTPEVTCVVVDVSHEDPEVKFNWYVDGVEVHNAKTKPREEQYNSTYRVVSVLTVLHQDWLNGKEYKCKVSNKALPAPIEKTISKAKGQPREPQVYTLPPSRDELTKNQVSLTCLVKGFYPSDIAVEWESNGGCYPLQDYCGGGQPENNYKTTPPVLDSDGSFFLYSKLTVDKSRWQQGNVFSCSVMHEALHNHYTQKSLSLSPGK
notes: also called Fc-5-69-WIY
Molecule B8 had an EC50 in experiment [1] of 140 nM.

B9: variant Fc-fragment Fc-5-106-M4A (other)
chain: EPKSCDKTHTCPPCPAPELLGGPSVFLFPPKPKDTLMISRTPEVTCVVVDVSHEDPEVKFNWYVDGVEVHNAKTKPREEQYNSTYRVVSVLTVLHQDWLNGKEYKCKVSNKALPAPIEKTISKAKGQPREPQVYTLPPSRDELTKNQVSLTCLVKGFYPSDIAVEWESNGGCVFNAFNCGGGQPENNYKTTPPVLDSDGSFFLYSKLTVDKSRWQQGNVFSCSVMHEALHNHYTQKSLSLSPGK
Regarding B9, the half-maximal effective concentration (EC50) in experiment [1] was 27 nM.

B10: variant Fc-fragment Fc-5-69 (other)
chain: EPKSCDKTHTCPPCPAPELLGGPSVFLFPPKPKDTLMISRTPEVTCVVVDVSHEDPEVKFNWYVDGVEVHNAKTKPREEQYNSTYRVVSVLTVLHQDWLNGKEYKCKVSNKALPAPIEKTISKAKGQPREPQVYTLPPSRDELTKNQVSLTCLVKGFYPSDIAVEWESNGGCWPLQDYCGGGQPENNYKTTPPVLDSDGSFFLYSKLTVDKSRWQQGNVFSCSVMHEALHNHYTQKSLSLSPGK
notes: soluble elsewhere
For B10, the EC50 in experiment [1] came out at 20 nM; in the experiment with cynomolgus monkey FcRn, 18 nM. The figures for the ELISA score in experiment [2] and in experiment [4] were 76.7 and 0.6, respectively.

B11: variant Fc-fragment Fc-5-106-M4S (other)
chain: EPKSCDKTHTCPPCPAPELLGGPSVFLFPPKPKDTLMISRTPEVTCVVVDVSHEDPEVKFNWYVDGVEVHNAKTKPREEQYNSTYRVVSVLTVLHQDWLNGKEYKCKVSNKALPAPIEKTISKAKGQPREPQVYTLPPSRDELTKNQVSLTCLVKGFYPSDIAVEWESNGGCVFNSFNCGGGQPENNYKTTPPVLDSDGSFFLYSKLTVDKSRWQQGNVFSCSVMHEALHNHYTQKSLSLSPGK
B11 had an EC50 in experiment [1] of 58 nM.

B12: variant Fc-fragment Fc-5-51 (other)
chain: EPKSCDKTHTCPPCPAPELLGGPSVFLFPPKPKDTLMISRTPEVTCVVVDVSHEDPEVKFNWYVDGVEVHNAKTKPREEQYNSTYRVVSVLTVLHQDWLNGKEYKCKVSNKALPAPIEKTISKAKGQPREPQVYTLPPSRDELTKNQVSLTCLVKGFYPSDIAVEWESNGGCHLPFAVCGGGQPENNYKTTPPVLDSDGSFFLYSKLTVDKSRWQQGNVFSCSVMHEALHNHYTQKSLSLSPGK
notes: soluble elsewhere
B12: the ELISA score in experiment [2] stood at 82.5; in experiment [4], 0.4. Also, the values for the EC50 (in experiment [3]; with cynomolgus monkey FcRn) were 16 nM and 21 nM, respectively.

B13: variant Fc-fragment Fc-5-69-W1F (other)
chain: EPKSCDKTHTCPPCPAPELLGGPSVFLFPPKPKDTLMISRTPEVTCVVVDVSHEDPEVKFNWYVDGVEVHNAKTKPREEQYNSTYRVVSVLTVLHQDWLNGKEYKCKVSNKALPAPIEKTISKAKGQPREPQVYTLPPSRDELTKNQVSLTCLVKGFYPSDIAVEWESNGGCFPLQDYCGGGQPENNYKTTPPVLDSDGSFFLYSKLTVDKSRWQQGNVFSCSVMHEALHNHYTQKSLSLSPGK
notes: also called Fc-5-69-WIF
B13 came in with an EC50 in experiment [1] of 57 nM.
